Experimental data reported in US20080107630.

Tested on: gelatin (0.1%, incorporated in a 10% Tris-glycine polyacrylamide gel as substrate)

## human matrix metalloproteinase-8 (recombinant, secreted by A549 cells infected with AdMMP8)
  gelatin hydrolysis in zymogram gel: The gelatin hydrolysis visible in the zymogram gel
